Source: article PMC13156308
pKd: −log10 of the molar value.

What was measured:
[1] = target: full-length strep-tagged POLD3 (human) (UniProt Q15054); assay: BLI; POLD3 immobilised on Streptavidin (SAX) biosensors, BLItz, 1x PBS and 0.02% Tween
GST-tagged MCM2 (human) = GST-tagged MCM2 (human) (UniProt P49736); assay: BLI; MCM2 immobilised on Anti-GST biosensors, BLItz, 1x PBS and 0.02% Tween; analyte 0-50.0 nM
GST-tagged MCM2 (human), sequence (P49736 whole entry): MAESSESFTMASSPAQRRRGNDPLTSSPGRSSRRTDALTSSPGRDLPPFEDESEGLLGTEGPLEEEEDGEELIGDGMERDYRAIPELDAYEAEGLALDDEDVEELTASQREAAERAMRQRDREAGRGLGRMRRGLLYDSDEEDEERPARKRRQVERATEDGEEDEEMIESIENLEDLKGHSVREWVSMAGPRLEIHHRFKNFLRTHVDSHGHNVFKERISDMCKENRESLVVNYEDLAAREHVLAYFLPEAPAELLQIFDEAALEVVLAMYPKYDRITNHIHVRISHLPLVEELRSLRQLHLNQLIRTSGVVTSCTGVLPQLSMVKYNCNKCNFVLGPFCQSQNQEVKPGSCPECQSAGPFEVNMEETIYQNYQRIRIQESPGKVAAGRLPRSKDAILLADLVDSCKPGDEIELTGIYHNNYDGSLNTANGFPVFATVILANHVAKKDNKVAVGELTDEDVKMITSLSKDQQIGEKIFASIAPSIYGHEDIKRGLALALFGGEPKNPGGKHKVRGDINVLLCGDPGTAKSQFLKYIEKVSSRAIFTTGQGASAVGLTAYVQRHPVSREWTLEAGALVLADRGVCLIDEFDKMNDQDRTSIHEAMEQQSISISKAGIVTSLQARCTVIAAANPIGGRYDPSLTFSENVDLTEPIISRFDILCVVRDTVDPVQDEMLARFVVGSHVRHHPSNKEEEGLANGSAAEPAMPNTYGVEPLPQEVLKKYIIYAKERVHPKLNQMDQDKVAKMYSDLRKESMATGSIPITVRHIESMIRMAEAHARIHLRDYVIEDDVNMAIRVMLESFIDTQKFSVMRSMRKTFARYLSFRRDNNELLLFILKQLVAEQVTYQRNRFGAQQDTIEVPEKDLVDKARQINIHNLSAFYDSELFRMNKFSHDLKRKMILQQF

full-length strep-tagged POLD3 (human), sequence (Q15054 whole entry): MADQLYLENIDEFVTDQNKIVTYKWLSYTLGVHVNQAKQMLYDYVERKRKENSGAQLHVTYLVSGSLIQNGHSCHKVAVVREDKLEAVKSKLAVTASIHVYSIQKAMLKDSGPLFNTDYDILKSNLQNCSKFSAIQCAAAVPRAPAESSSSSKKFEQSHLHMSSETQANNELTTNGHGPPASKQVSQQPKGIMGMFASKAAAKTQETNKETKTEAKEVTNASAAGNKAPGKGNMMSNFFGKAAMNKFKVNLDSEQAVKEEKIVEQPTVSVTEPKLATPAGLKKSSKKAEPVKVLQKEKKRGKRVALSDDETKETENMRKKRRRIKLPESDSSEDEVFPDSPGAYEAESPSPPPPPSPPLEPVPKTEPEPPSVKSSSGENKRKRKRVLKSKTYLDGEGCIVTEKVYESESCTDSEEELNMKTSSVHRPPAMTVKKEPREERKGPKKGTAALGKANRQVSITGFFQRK

- pKd [1]: 8.57
- pKd (GST-tagged MCM2 (human)): 8.66
Substance: histone (H3.1-H4)2 tetramer (from UniProt P68431 1-136; P62805 1-103) (complex; other documents disagree on this pair)
